Laboratory results from article PMC6327041 (Nature Communications, 2019).
Like-named read-outs stand apart in the source and are kept apart here.

Target: T1, KDM5A1-797 (Homo sapiens, UniProt P29375)
T1 construct: KDM5A1-797 was cloned into a pFASTBAC HTA vector; His (N, cleaved yes); made in house; host or cells: Sf21 insect cells (baculovirus)
T1 sequence (P29375 1-797): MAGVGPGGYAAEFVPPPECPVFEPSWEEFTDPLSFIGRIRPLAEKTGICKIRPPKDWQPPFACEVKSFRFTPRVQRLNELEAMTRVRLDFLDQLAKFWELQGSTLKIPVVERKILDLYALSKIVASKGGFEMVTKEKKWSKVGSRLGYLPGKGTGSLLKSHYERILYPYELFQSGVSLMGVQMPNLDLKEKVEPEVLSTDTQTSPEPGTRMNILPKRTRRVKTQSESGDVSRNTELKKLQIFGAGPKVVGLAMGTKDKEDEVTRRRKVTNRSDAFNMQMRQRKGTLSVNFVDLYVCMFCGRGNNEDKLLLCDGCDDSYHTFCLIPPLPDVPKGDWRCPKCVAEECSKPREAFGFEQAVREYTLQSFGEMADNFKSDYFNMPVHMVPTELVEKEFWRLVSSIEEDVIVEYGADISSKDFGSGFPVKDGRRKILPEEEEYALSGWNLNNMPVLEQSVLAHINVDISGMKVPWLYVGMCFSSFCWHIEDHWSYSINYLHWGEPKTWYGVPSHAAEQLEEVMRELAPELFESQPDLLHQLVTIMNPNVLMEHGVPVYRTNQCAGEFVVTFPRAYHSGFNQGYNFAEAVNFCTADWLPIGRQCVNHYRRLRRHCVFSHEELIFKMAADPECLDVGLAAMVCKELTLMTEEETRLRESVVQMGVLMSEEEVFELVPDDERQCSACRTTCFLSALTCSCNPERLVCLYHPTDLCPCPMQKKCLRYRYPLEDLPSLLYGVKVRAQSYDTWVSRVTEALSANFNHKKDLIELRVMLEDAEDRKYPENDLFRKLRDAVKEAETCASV
Experiment: KDM5A demethylation, FDH-coupled formaldehyde release assay
Format: biochemical
Details: for kcat / Km: n ≥ 3, s.e.m.
Description: WT KDM5A1-797 was expressed in Sf21 cells following Invitrogen Bac-to-Bac baculovirus expression system protocol. KDM5A1-797 was cloned into a pFASTBAC HTA vector. Purified bacmid was transfected in Sf21 cells. Approximately […] cells per well of a six-well dish were allowed to attach in 2 ml of SF-900 II SFM media containing 50 U ml^−1 penicillin and 50 μg ml^−1 streptomycin. While cells attached, 8 μl of Cellfectin II reagent (Invitrogen) in 100 μl of unsupplemented Grace’s medium was mixed with ~2–5 μg of bacmid in 100 μl of unsupplemented Grace’s medium and incubated for 15–30 min at 25 °C. Once cells were attached, media was removed and cells were washed with 2 ml of Grace’s unsupplemented media. The bacmid DNA:Cellfectin mixture was then diluted to 1 ml with Grace’s unsupplemented media and added to the well. Cells with bacmid:Cellfectin II mixture were incubated for 5 h at 27 °C. After 5 h of incubation, bacmid:Cellfectin mixture was removed and replaced with 2 ml of SF-900 II SFM 50 U ml^−1 penicillin and 50 μg ml^−1 streptomycin. Transfected cells were incubated 3–5 days or until signs of viral infection were observed. After transfection, the supernatant was spun down to remove the dead cells. The supernatant was then sterile filtered to obtain the P1 viral stock. To make P2, 20 ml of […] at ~2 × 10^6 cells per ml of sf21 was infected with 2 ml of P1 virus and incubated for 48–60 h. After 56 h, the cells were spun down and the supernatant was collected and sterile filtered to obtain P2 viral stock. Similarly, P3 viral stock from P2 viral stock was obtained. Generally, 1 l of Sf21 at 2 × 10^6 cells per ml was infected with ~40 ml of P3 virus for ~48–56 h. Cells were then collected and resuspended in the lysis buffer (25 mM HEPES pH 7.9, 350 mM NaCl, 5 mM KCl, 1.5 mM MgCl2, 10 mM imidazole, aprotinin 2 μg ml^−1, leupeptin 3 μg ml^−1, pepstatin 3 μg ml^−1, and 1 mM PMSF). Cells were homogenized by emulsiflex. After lysis, the supernatant was recovered by centrifuging at 35k r.p.m. for 45 min, and incubated with cobalt resin equilibrated in lysis buffer for 1 h at 4 °C. After incubation the resin was washed with wash buffer (25 mM HEPES, pH 7.9, 350 mM NaCl, 0.5 mM MgCl2, 10% glycerol, 10 mM imidazole, aprotinin 2 μg ml^−1, leupeptin 3 μg ml^−1, pepstatin 3 μg ml^−1, and 1 mM PMSF). His-KDM5A was eluted with elution buffer (25 mM HEPES pH 7.9, 100 mM NaCl, 0.5 mM MgCl2, 10% glycerol, 100 mM imidazole, aprotinin 2 μg ml^−1, leupeptin 3 μg ml^−1, pepstatin 3 μg ml^−1, and 1 mM PMSF). The His-tag was removed by overnight incubation with TEV protease at 4 °C in the dialysis buffer (25 mM HEPES, pH 7.9, 100 mM NaCl, and 2 mM DTT). After cleavage, protein was further purified by size-exclusion chromatography using a S200 column. Purified KDM5A was eluted, aliquoted and stored at −80 °C in 40 mM HEPES, pH 7.9, 50 mM KCl.
Michaelis–Menten parameters were determined using Graphpad Prism.

[1] = 38 µM H3 10mer effector peptide vs none
[2] = KDM5A1-797 WT (Table 3), no effector

change of kcat on addition of effector peptide [1] | reduction in Km on addition of effector peptide [1] | kcat/Km (+H3 10mer peptide (38 µM)) [M⁻¹ s⁻¹] | kcat (+H3 10mer peptide (38 µM), 1 μM KDM5A, pH 7.5, room temperature) [s⁻¹] | Km (+H3 10mer peptide (38 µM), 1 μM KDM5A, pH 7.5, room temperature, read-out: Km) [µM] | kcat/Km [2] [M⁻¹ s⁻¹] | kcat [2] [s⁻¹] | Km (KDM5A1-797 WT (Table 3), no effector, read-out: Km) [µM] | kcat/Km (No effector peptide) [M⁻¹ s⁻¹] | kcat (No effector peptide, 1 μM KDM5A, pH 7.5, room temperature) [s⁻¹] | Km (No effector peptide, 1 μM KDM5A, pH 7.5, room temperature, read-out: Km) [µM] | rank of Km reduction among effector peptides (Ac-H3K4me3 21mer substrate, saturating effector peptide) | Km (Km of Ac-H3K4me3 21mer with saturating modified H3 10mer effector (20× Kd; H3K4me2 10× Kd), 1 μM KDM5A, 50 mM HEPES, 50 mM KCl, pH 7.5, room temperature, read-out: Demethylase activity Km with effector peptide (Fig. 4a)) [µM] | Substance
kcat remains similar | fivefold | 2430 ± 200 | 0.0408 ± 0.00067 | 16.8 ± 1.1 | 490 ± 55 | 0.047 ± 0.0013 | 95.5 ± 7.6 | 490 ± 55 | 0.047 ± 0.001 | 95.5 ± 7.6 | – | – | Ac-H3K4me3 21mer: N-terminally acetylated 21mer H3K4me3 peptide, catalytic domain substrate
– | – | – | – | – | – | – | – | – | – | – | highest reduction in Km | 16.8 ± 1.1 | H3: unmodified N-terminal H3 tail 10mer peptide (H3 Ala1-Ser10), PHD1 effector ligand
